# Data reported in the supplement of paper PMC6755084.
# B1: minF1; a variant is named by its letters at N, in order (parent)
# chain: GAGACCGCAACTGAAAAGTTGTTNNNNAANNNNGGNTNNATTTCTGCACGTAGAAGCAAAAGGC
# Variants of: B1
# Experiment: fraction ligated after 30 min (ligated reads / total reads); higher = more ligase activity
# Conditions: with F1*subA RNA substrate (template-directed ligation), 42 °C
# Method: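 Chip-synthesised pool of minF1 ligase ribozyme variants (single and double substitutions, single to quadruple deletions, bulge and P2 designed variants) was transcribed with T7 and reacted as a pool with excess substrate F1*subA for 30 min at 42 C in 50 mM EPPS pH 8.5, 25 mM MgCl2. Ligated and unligated RNAs were separated by PAGE, barcoded by RT and deep sequenced; fraction ligated = ligated reads / total reads, relative activity = FL / FL of wild-type minF1 (0.76); sequencing FL correlated with PAGE (R2 = 0.98). Sequences are the DNA template of the ribozyme.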
row,Variant,fraction ligated
1,ATCAAATGTGA,0.00252
2,ATCAAGATGTG,0.0129
3,ATCAAGATGTA,0.00295
4,ATCAAAGAGTG A28G,0.00384
5,ATAGTGAGTGA,0.00282
6,ATCAGGAGTGA,0.00543
7,ATAGATGGGTT G34T T37G,0.00071
8,ATCAAATAGTT A28G G34T T37G A40G,0.0013
9,ATAAGGATGTA A29T,0.00345
10,ATAGGGATGTG A29T,0.012
11,ATAGGGATTGA A29T,0.0025
12,ATCAAATAGTA A28G G34T,0.00133
13,ATCAAATGGTT A28G G35T T37G,0.00103
14,ATCAGATGTGA A29T,0.00586
15,ATCAGATGTGA A29G,0.0024
16,ATCAAATGGTT A28G G34T T37G,0.000947
17,CGAAGGATGTA A29T,0.00492
18,ATCAATGAGTT G34T T37G,0.00278
19,ATCAAATAGTT A28G G34T T37G,0.00135
20,TGAAGGATGTA A29T,0.00266
21,ATCAAATGTGT A28G G35A T37G A40T,0.000969
22,ATCAAGAGTGA A28G,0.00247
23,ATAGATGAGTG,0.0071
24,ATAGATGAGTA,0.00311

row,Variant,fraction ligated
1,ATAATGGAGTG G34T,0.0113
2,AGAAGGATTGA A29T,0.00498
3,ATAGAGGAGTT G34T T37G,0.00132
4,CGAAGATGTGA A29T,0.00363
5,CGAAGATGTGA A29G,0.00313
6,ATCAATGTGTG,0.00785
7,ATCAATGTGTA,0.00707
8,ATAGATATGTG,0.013
9,ATAGATATGTA,0.00365
10,ATAGTGGAGTA,0.00346
11,ATAGTGGAGTG,0.00518
12,ATAAGGATGTG A29T,0.00947
13,ATCAATGAGTA A28G,0.00241
14,ATAAGGTGTGA,0.00238
15,ATAGATGGGTA G34T,0.00288
16,ATAGATGGGTA G34A,0.00325
17,ATCAAGGTGTG,0.00687
18,ATCAAGGTGTA,0.00438
19,ATAAGATGTGA A29T,0.00321
20,ATAAGATGTGA A29G,0.00765
21,ATCAATGAGTA G34T,0.0033
22,ATCAATGAGTA,0.00236
23,ATCAATGAGTG,0.00492
24,ATAGAGGATGA,0.00219

row,Variant,fraction ligated
1,ATAAGGAGTGA,0.000696
2,AGAAGGATGTG T23A A29T,0.00517
3,ATAGAGGAGTT G34T T37G A40G,0.00121
4,ATCAAAGGGTT A28G G34A T37G,0.00203
5,TGAAGGATGTG A29T,0.00863
6,ATCAAAGATGA A28G,0.00211
7,ATCAATATGTA,0.00288
8,ATCAATATGTG,0.00446
9,ATAGATGGGTT G34A T37G A40G,0
10,TCGATGTGTGA T23A,0.00234
11,ATCAAAGTGTG A28G,0.00272
12,ATAGGGTGTGA A29T,0.00231
13,ATAGTGGAGTT G34T T37G,0.00164
14,ATCAATGTTGA,0.00356
15,ATAGGGAGTGA,0.00238
16,ATCAATGGGTT A28G G34A T37G A40G,0.000541
17,ATCAAGGTTGA,0.00224
18,AGAAGGATTGA T23C A29T,0.00646
19,ATCAAAATGTA A28G,0.0033
20,ATAATGGAGTT G34T T37G,0.00161
21,ATCAATGGGTT A28G G34A G35T T37G,0.00268
22,CGAAGGTGTGA A29T,0.00384
23,ATCAGGATTGA A28G,0.0019
24,ATCAATGTGTA A28G,0.00287

row,Variant,fraction ligated
1,ATAGATGGGTT G34A G35T T37G A40G,0.00103
2,ATCAAATAGTG A28G,0.00674
3,ATCAAATTGTA A28G,0.00076
4,CGAAGGAGTGA T23A A29T,0.00498
5,ATCAATGGTGA A28G,0.00319
6,ATCAATAGTGA,0.00321
7,ATCAAATTGTG A28G,0.00512
8,ATCAATGGGTT A28G G34T T37G A40G,0.00157
9,ATAATGGAGTA,0.00371
10,ATAATGGAGTG,0.00646
11,AGAAGGATTGA T23A A29T,0.00594
12,AGAAGATGTGA T23C A28T A29G,0.00411
13,ATAGTGATTGA,0.00291
14,ATAGTGGGTGA,0.00334
15,CGAAGATGTGA T23A A28T A29G,0.00787
16,ATAATGAGTGA,0.00461
17,CGAAGGTGTGA T23A A29T,0.000502
18,ATAGATGGTGA,0.00397
19,ATCAAGATTGA,0.00249
20,ATCAAGGAGTT G34T T37G,0.00324
21,ATAGATTGTGA,0.00167
22,AGAAGATGTGA T23C A29T,0.00701
23,AGAAGATGTGA T23C A29G,0.00313
24,ATAGATGGGTT G34A T37G,0.000508

row,Variant,fraction ligated
1,ATCAATATGTA A28G,0.00429
2,TGAAGGAGTGA T23A A29T,0.00234
3,ATAAGATGTGA A28T A29G,0.0107
4,ATCAATGAGTG A28G,0.00439
5,AGAAGGTGTGA A29T,0.0036
6,CGAAGGATGTG T23A A29T,0.0123
7,ATAAGGATGTG,0.00567
8,ATAAGGATGTA,0.00287
9,ATAATGATTGA,0.00291
10,CGAAGGATGTG A29T,0.0152
11,ATCAGATGTGA A28T A29G,0.0131
12,ATAGTGATGTG,0.00732
13,ATAGTGATGTA,0.00203
14,ATAGTGGATGA,0.00362
15,ATCAAAGGGTT A28G G34A G35T T37G,0.00185
16,AGAAGGAGTGA A29T,0.00436
17,ATCAAAGAGTG A28G G34T,0.00562
18,ATAGATGGGTT G34A G35T T37G,0.0013
19,ATAGGATGTGA A29T,0.00303
20,ATAGGATGTGA A29G,0.00633
21,ATCAAGGGTGA A28G,0.00483
22,ATCAATGAGTT A28G G34T T37G A40G,0.000608
23,ATCAATGGGGT G34A G35T T37G A40T,0.0016
24,ATCAATGGGTT A28G G34T T37G,0.00191

row,Variant,fraction ligated
1,ATCAAATGGGT A28G G35T T37G A40T,0.00169
2,ATCAGGAGTGA A29T,0.00323
3,ATAATGGATGA,0.00189
4,ATCAAAGGGTG A28G,0.0051
5,ATAGAGGTGTG,0.00428
6,ATAGAGGTGTA,0.00141
7,ATCAATGGGTA A28G G34A,0.00228
8,ATCAATGGGTA A28G G34T,0.00241
9,ATCAAGAGTGA,0.0037
10,ATCAAATGGTT A28G T37G,0.00127
11,ATCAAATGGTT A28G G35A T37G A40G,0.00174
12,ATCAAGGAGTT A28G G34T T37G A40G,0.000656
13,ATAGATGAGTT G34T T37G,0.00193
14,ATAGATGGGTT G34T T37G A40G,0.000495
15,ATCAGGATGTG A28G,0.0124
16,ATCAGGATTGA A28G A29T,0.00153
17,ATAGATATTGA,0.00398
18,ATAATGGGTGA,0.00329
19,ATCAAAGAGTT A28G G34T T37G A40G,0.00143
20,ATCAAATGGTT A28G G34A G35T T37G,0.00118
21,ATCAAATGGTT A28G T37G A40G,0.0011
22,ATCAAAGGTGA A28G,0.00196
23,TGAAGGTGTGA A29T,0.00178
24,ATCAATGGGTG A28G G34T,0.00456

row,Variant,fraction ligated
1,ATCAATGGGTG A28G G34A,0.00717
2,ATCAATGGGTG G34A,0.00542
3,ATCAATGGGTG G34T,0.00622
4,ATAGAATGTGA,0.00417
5,ATCAGGAGTGA A28G A29T,0.0016
6,ATCAAAGGGTG A28G G34T,0.00328
7,ATCAAAGGGTG A28G G34A,0.00764
8,ATCAGGATGTA A28G,0.00247
9,ATCAATGATGA,0.00478
10,ATCAATGGGTG,0.00492
11,ATCAATGGGTA,0.00273
12,ATCAATGGGTA A28G,0.000828
13,ATAAGGTGTGA A29T,0.00316
14,TGAAGGATGTA T23A A29T,0.00285
15,ATCAAAGTTGA A28G,0.0038
16,ATAGTATGTGA,0.00386
17,ATCAAGGAGTA A28G G34T,0.00153
18,ATCAATGAGTA A28G G34T,0.00248
19,ATCAAGGAGTG A28G G34T,0.00593
20,ATCAAGTGTGA,0.00229
21,CGAAGGATTGA A29T,0.00943
22,ATCAATAGTGA A28G,0.00213
23,ATAAGGATTGA A29T,0.00367
